PMC3737555, “Structural insights into the targeting of mRNA GU-rich elements by the three RRMs of CELF1”

How the values were obtained:
[1] = tested on: CELF1 RRM23 (Xenopus); test: ITC; settings: ITC: 25 mM potassium phosphate, 100 mM NaCl, pH 7.0, 25 C, 12.5 uM protein, 125 uM RNA in syringe; NMR: same buffer, 298 K, ~200-250 uM protein
[2] = target: CELF1 full-length wild type (Xenopus, UniProt O57406 1-489); test: NMR; extensive line broadening; ITC: 25 mM potassium phosphate, 100 mM NaCl, pH 7.0, 25 C, 12.5 uM protein, 125 uM RNA in syringe; NMR: same buffer, 298 K, ~200-250 uM protein; settings: protein: recombinant, tags: N-terminal His
CELF1 full-length wild type, sequence (O57406 whole entry): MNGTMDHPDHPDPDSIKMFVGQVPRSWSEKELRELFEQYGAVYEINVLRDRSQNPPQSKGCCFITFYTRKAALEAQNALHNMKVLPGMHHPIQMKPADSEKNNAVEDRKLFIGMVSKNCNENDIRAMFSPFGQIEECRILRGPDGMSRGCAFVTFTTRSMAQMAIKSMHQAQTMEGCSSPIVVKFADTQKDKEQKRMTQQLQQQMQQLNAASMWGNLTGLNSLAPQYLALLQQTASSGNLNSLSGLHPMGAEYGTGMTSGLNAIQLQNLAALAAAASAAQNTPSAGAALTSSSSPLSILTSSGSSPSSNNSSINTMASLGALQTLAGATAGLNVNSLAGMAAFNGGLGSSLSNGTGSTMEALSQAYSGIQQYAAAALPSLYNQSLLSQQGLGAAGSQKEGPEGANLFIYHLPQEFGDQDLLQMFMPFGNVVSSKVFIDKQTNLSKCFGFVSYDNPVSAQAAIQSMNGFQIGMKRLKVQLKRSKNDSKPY

[3] = target: T1, CELF1 RRM123 (Xenopus, UniProt O57406 1-214+385-489, internal_change); test: ITC; n=0.85; ITC: 25 mM potassium phosphate, 100 mM NaCl, pH 7.0, 25 C, 12.5 uM protein, 125 uM RNA in syringe; NMR: same buffer, 298 K, ~200-250 uM protein; settings: protein: recombinant; tags: N-terminal His; single strand
T1 sequence (O57406 other isoform, or with tags, fused parts or gaps): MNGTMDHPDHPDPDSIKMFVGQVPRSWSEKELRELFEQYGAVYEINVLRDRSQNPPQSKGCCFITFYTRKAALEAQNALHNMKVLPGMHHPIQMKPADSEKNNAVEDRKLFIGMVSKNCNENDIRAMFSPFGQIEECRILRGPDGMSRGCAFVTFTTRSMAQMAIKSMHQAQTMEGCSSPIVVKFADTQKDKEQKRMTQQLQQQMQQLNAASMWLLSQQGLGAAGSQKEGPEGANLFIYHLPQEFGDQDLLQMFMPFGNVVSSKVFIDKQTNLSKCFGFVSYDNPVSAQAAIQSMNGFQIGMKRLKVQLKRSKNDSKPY

[4] = target: T1, CELF1 RRM123; test: ITC; n=1.64; ITC: 25 mM potassium phosphate, 100 mM NaCl, pH 7.0, 25 C, 12.5 uM protein, 125 uM RNA in syringe; NMR: same buffer, 298 K, ~200-250 uM protein; settings: protein: recombinant; tags: N-terminal His; single strand
[5] = target: CELF1 RRM1 (Xenopus, UniProt O57406 16-99); test: NMR PRE; ITC: 25 mM potassium phosphate, 100 mM NaCl, pH 7.0, 25 C, 12.5 uM protein, 125 uM RNA in syringe; NMR: same buffer, 298 K, ~200-250 uM protein; settings: protein: recombinant; tags: His; label: MTSL on 5' 4-thiouridine; single strand
CELF1 RRM1, sequence (O57406 16-99): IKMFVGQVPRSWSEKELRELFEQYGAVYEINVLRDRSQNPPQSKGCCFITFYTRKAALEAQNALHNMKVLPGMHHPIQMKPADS

[6] = target: T1, CELF1 RRM123; test: ITC; n=1.19; text gives 1.50 +/- 0.28; ITC: 25 mM potassium phosphate, 100 mM NaCl, pH 7.0, 25 C, 12.5 uM protein, 125 uM RNA in syringe; NMR: same buffer, 298 K, ~200-250 uM protein; settings: protein: recombinant; tags: N-terminal His; single strand
[7] = target: T1, CELF1 RRM123; test: ITC; n=1.45; ITC: 25 mM potassium phosphate, 100 mM NaCl, pH 7.0, 25 C, 12.5 uM protein, 125 uM RNA in syringe; NMR: same buffer, 298 K, ~200-250 uM protein; settings: protein: recombinant; tags: N-terminal His; single strand
[8] = target: T1, CELF1 RRM123; test: NMR PRE; strongest PRE in RRM2; ITC: 25 mM potassium phosphate, 100 mM NaCl, pH 7.0, 25 C, 12.5 uM protein, 125 uM RNA in syringe; NMR: same buffer, 298 K, ~200-250 uM protein; settings: protein: recombinant; tags: N-terminal His; label: MTSL on 5' 4-thiouridine; single strand
[9] = target: T1, CELF1 RRM123; test: ITC; n=0.83; ITC: 25 mM potassium phosphate, 100 mM NaCl, pH 7.0, 25 C, 12.5 uM protein, 125 uM RNA in syringe; NMR: same buffer, 298 K, ~200-250 uM protein; settings: protein: recombinant; tags: N-terminal His; hairpin, 4 bp stem, single-stranded 5' and 3' tails
[10] = target: T1, CELF1 RRM123; test: ITC; n=0.79; ITC: 25 mM potassium phosphate, 100 mM NaCl, pH 7.0, 25 C, 12.5 uM protein, 125 uM RNA in syringe; NMR: same buffer, 298 K, ~200-250 uM protein; settings: protein: recombinant; tags: N-terminal His; single strand
[11] = target: T1, CELF1 RRM123; test: ITC; n=0.67; ITC: 25 mM potassium phosphate, 100 mM NaCl, pH 7.0, 25 C, 12.5 uM protein, 125 uM RNA in syringe; NMR: same buffer, 298 K, ~200-250 uM protein; settings: protein: recombinant; tags: N-terminal His; single strand
[12] = target: T1, CELF1 RRM123; test: NMR PRE; strongest PRE in RRM3; ITC: 25 mM potassium phosphate, 100 mM NaCl, pH 7.0, 25 C, 12.5 uM protein, 125 uM RNA in syringe; NMR: same buffer, 298 K, ~200-250 uM protein; settings: protein: recombinant; tags: N-terminal His; label: MTSL on 3' 4-thiouridine; single strand

Molecule: RNA with UGU(U) site used with RRM23
- Kd [1]: 520 nM

Molecule: UGUUUUGUUUUUUGU (ssRNA) [EDEN-2U/4U]
- binding result ([2]; single strand): binds
- Kd [3]: 110 ± 20 nM

Molecule: UGUUUUUUGU (ssRNA) [EDEN-4U]
- Kd [4]: 2080 ± 400 nM

Molecule: UUGU (ssRNA, 5'-terminal 4-thiouridine) [5'-U*UGU]
- binding result [5]: binds

Molecule: UGUUUUGUUUGU (ssRNA) [EDEN-2U/1U]
- Kd [6]: 1490 ± 230 nM

Molecule: UGUUUGUUUGU (ssRNA) [EDEN11 (GRE)]
- Kd [7]: 2200 ± 300 nM

Molecule: UUGUUUUGUUUUUUGU (ssRNA, additional 5'-terminal 4-thiouridine) [5'-U* EDEN-2U/4U]
- binding result [8]: binds

Molecule: UGUUUUGUUCCCGAGGACGGGUUGU (structured_RNA) [EDEN-2U/HL]
- binding result ([2]; hairpin, 4 bp stem, single-stranded 5' and 3' tails): binds
- Kd [9]: 550 ± 80 nM

Molecule: UGUAUGUGUUGUUUUAUGU (ssRNA) [EDEN19]
- Kd [10]: 330 ± 70 nM

Molecule: UGUUUUUUGUUUUGU (ssRNA) [EDEN-4U/2U]
- Kd [11]: 980 ± 120 nM

Molecule: UGUUUUGUUUUUUGUU (ssRNA, 3'-terminal 4-thiouridine (taken as an additional nucleotide; not explicit)) [3'-U* EDEN-2U/4U]
- binding result [12]: binds
